Patent publication US12686712B2, “Antibody, related use, pharmaceutical composition including method for diagnosing fungal infections, fungal infection diagnosis kit and method for treating fungal infections” (priority 2020, dated 2026)
Several values for one entry are separate records, joined by “and”; a condition that tells them apart may be missing. Identical values can stand only once.

Columns and labels:
C. neoformans [1] = assay: Minimum inhibiting concentration (MIC) assay, alone or in association with AmB or FLC; format: cell-based, Cryptococcus neoformans; settings: 48 hours at 37° C.
Method: C. neoformans cells were cultivated in RPMI 1640 buffered with MOPS in pH 7 at 10^5 cell/well density in 96-well plates in 200 μl final volume. Systems were supplemented with AcM at concentration (25 to 0.05 μg/ml), AmB (1 to 0.1 lμg/ml) or FLC (8 to 2 μg/ml), alone or in association. After 48 hours of incubation at 37° C. under agitation, cells were suspended by pipetting for spectrophotometer reading at 592 nm wavelength.
AcMs fungicide activity was tested through CIM test. […] It was assessed if AcMs association with AmB or FLC would trigger antifungal effects in sub-inhibiting concentrations, thus 1 μg/ml concentrations of AmB and 4 and 2 μg/ml to FLC in combination with AcMs different concentrations. To assess whether there was combining effect of AcMs with drug, it was used as drug action base in isolate form.

C. neoformans strain H99 = assay: Survival trial, lethal i.p. challenge; format: in vivo, Balb/C line mice; settings: AmB standard dose 2.5 mg/kg alone; data not provided
Method: Balb/C line mice (n=7) were lethally challenged via i.p. with 10^5 cells in PBS of C. neoformans (H99) and treated 2 hours later with 100 μl of AmB (2.5 mg/kg and 0.25 mg/kg), 100 μl of AcM (85 μg/ml) and 100 μl of AcM and AmB combined solution (0.25 mg/kg). Control animals were challenged only by C. neoformans (H99) or only with 100 μl of a solution of PBS, AmB (2.5 mg/kg) or AcM (85 μg/ml) without fungus (adapted from Liedke et al.). Survival rate was achieved and analysis was extended up to 90 days after infection, presenting statistical value with p<0.005.
Mice were lethally challenged with inoculant i.p. of 1×10^5 cells of yeast C. neoformans strain H99. After 2 hours, they were treated with PBS (negative control), 85 μg/animal of AcM (HC6/DD11) in isolate form, 0.25 or 2.5 mg/kg of AmB in isolate form, and in synergic form, AcM keeping test concentrations. Treatments were repeated for another two times, with 10-day interval.

[2] = test system: acapsular mutant of C. neoformans Cap67; assay: Biofilm development, XTT reduction trial; format: cell-based, Cryptococcus neoformans; settings: AcM 25 μg/ml, 48 hours at 37° C., vs fungus without treatment, p<0.05
Method: (§1) C. neoformans (H99 and Cap67) and Candida albicans were cultivated in Sabouraud media for 24 hours at 30° C. Cellular suspensions were centrifuged for 5 minutes at 3000 g, washed 3 times in PBC and suspended in minimum media (20 mg/ml thiamin, 30 mm glucose, 26 mM glycine, 20 mM MgSO4, and 58.8 mM KH2PO4). Then, they were added to 96-well plates (100 μl/well—1×10^6 células/ml) and cultivated for 48 hours at 37° C. at presence of AcM (HC6/DD11 and AF1/CC5) and AcM anti-GXM 18B7 (only to H99) at 25 μg/ml concentration, keeping under agitation for 30 minutes, for AcM total homogenization with fungi. As control, drug AmB was used at 1 μg/ml concentration.
(§2) Two analysis systems were performed: in the first, cells were washed, so that non-adhering cells were removed and only cells bonded to biofilm under development remained; in the second system, cells were not washed and all cells adhered or not to substrate were quantified.
(§3) Viable cell metabolic activity in both trials was assessed by the method based on decrease of XTT (2-methoxy-4-nitro-5-sulfophenyl)-5-[(phenylamino) carbonyl]-2H-tetrazolium hydroxide) in spectrophotometer at 492 nm of wavelength.
(§4) AcMs were tested (25 μg/ml) against three fungus species (C. albicans, C. neoformans—H99—and acapsular mutant of C. neoformans—Cap67), with control by AcM anti-GXM 18B7 (25 μg/ml) only to H99. In the first assay (FIGS. 14A and B), cellular suspensions were washed to remove non-adhering cells to substrate. […] In second assay (FIGS. 14C and D), cellular suspensions were not washed, and again AcM inhibited biofilm development (p<0.05) compared to cell not treated with antibodies. In both assays, cell growth was observed.

C. neoformans (H99) = assay: Indirect ELISA against intact cells using poly-L-Lysine (PL); format: binding, Cryptococcus neoformans; settings: 10^4 and 10^5 cells/ml
Method: (§5) For this test, C. neoformans (H99), Candida albicans, Giardia lamblia, human lung line cell A549 (ATCC), Escherichia coli and Staphylococcus aureus. Cells were washed in PBS three times and suspended at 10^7 cell/ml density in poly-L-Lysine (5 μg/ml in PBS) for adherence at night at 4° C. The next day, plates were blocked with PBS/BSA 5% and incubated for 1 hour at 37° C., then they are incubated for 1 hour at 37° C. with anti-chitooligomer AcM at 50 μg/ml concentration and diluted at 5 μg/ml. Then, washing with PBS/Tween 0.05% was performed for 3 times and anti-IgM murine peroxidase was added diluted 1:5000 and incubated for 2 hours at 37° C. Plates were washed again and TMB was added and incubated for 30 minutes at 37° C.
(§6) Reaction was stopped with HCl 1 N and reading with spectrophotometer at 450 nm. After this trial, seriated dilutions were performed at density of cells 10^7 until 10 cells/ml to fungi and 10^7 until 10^4 cells/ml to other cellular types and tested of AcM anti-chitooligomer at 25 μg/ml concentration, followed by the same procedures abovementioned. […]
(§7) In this trial, 10^7 cell/ml of C. albicans were used to perform an absorbance curve, in which it was observed that there was a 25 μg/ml concentration reliable signal of both AcM, as above such value the curve starts to enter in plateau, as provided in FIG. 9. […]

C. albicans [3] = assay: Biofilm development, XTT reduction trial; format: cell-based, Candida albicans; settings: AcM 25 μg/ml, 48 hours at 37° C., vs fungus without treatment, p<0.05
Method: as §1, §2, §3, §4

C. albicans [4] = assay: Indirect ELISA against intact cells using poly-L-Lysine (PL); format: binding, Candida albicans; settings: 10^4 and 10^5 cells/ml
Method: as §5, §6, §7

C. neoformans [5] = assay: Melanization trial (L-DOPA); format: cell-based, Cryptococcus neoformans
Method: C. neoformans cultivation was performed as paragraph and cellular suspension (1×10^6 cells/ml) was cultivated for 72 hours in minimum media supplemented with 1 mM of L-DOPA in 96-well plate of U-shape bottom. Antibodies HC6/DD11 and AF1/CC5 were added to minimum media within 25 to 0.05 μg/ml concentration range. The plate was centrifuged and pigment development quantification was defined densitometrically upon image scanning by iBright FL1000 Invitrogen equipment.
AcM HC6/DD11 e AF1/CC5 established concentrations were 0.2 to 25 μg/ml. L-DOPA was used with substrate to melanization.
Pigmentation in C. neoformans was assessed through brown to black sedimentation observation in 96-well plate bottom. To document pigmentation or inhibition, plates were photographed over white surfaces (clear bottom), to enable differentiation between pigmented and non-pigmented populations. It shall be noted that every AcM dose presents fungal growth, however with negative pigmentation or partial inhibition.

C. neoformans H99 = assay: Biofilm development, XTT reduction trial; format: cell-based, Cryptococcus neoformans; settings: AcM 25 μg/ml, 48 hours at 37° C., vs fungus without treatment, p<0.05
Method: as §1, §2, §3, §4
AcMs were compared to AcM anti-GXM 18B7 concerning biofilm development inhibition.

Candida albicans = assay: Immunofluorescence of AcM anti-chitooligomer against intact cells; format: binding; settings: AcM 25 μg/mL, 1 h at 37° C.; anti-IgM Alexa 568; calcofluor
Method: Fungal cells (10^6 cells)) were fastened (cacodylate paraformolaldehyde buffer 4%; 30 min) and blocked later (PBS/BSA 1%; 1 hour). Then, they were incubated with AcM anti-chitooligomer(25 μg/mL; 1 h at 37° C.) After washing with PBS, cells were incubated with mouse anti-IgM antibody conjugated at Alexa 568 (SIGMA; 1:1000). After PBS washing, cells were incubated with 25 μM of white calcofluor (Invitrogen) and washed again. Cellular suspensions were assembled in glass blades and assessed under microscope Olympus AX70, coupled to camera system (QImaging Retiga 1300) and assessed in QCapture suite V2.46 software.
From reliable and ELISA and Dot Blot trials, biological activity validation tests. Thus, AcMs were used through immunofluorescence (IF), using the pathogen Candida albicans as template. AcMs were efficient at fungal cellular wall labeling, showing the same profile whenever standard marker is used (lectin), data not provided.

## OC(Cn1cncn1)(Cn1cncn1)c1ccc(F)cc1F [FLC, Fluconazole]
C. neoformans [1]
  concentration with fungicide effect (control drug alone): 8 µg/mL

## C[C@@H]1[C@H](O)[C@@H](C)/C=C/C=C/C=C/C=C/C=C/C=C/C=C/[C@H](O[C@@H]2O[C@H](C)[C@@H](O)[C@H](N)[C@@H]2O)C[C@@H]2O[C@](O)(C[C@@H](O)C[C@@H](O)[C@H](O)CC[C@@H](O)C[C@@H](O)CC(=O)O[C@H]1C)C[C@H](O)[C@H]2C(=O)O [AmB, amphotericin polyene B, reference compound]
C. neoformans strain H99
  death of infected animals: did not die
C. neoformans [1]
  concentration with fungicide effect (control drug alone): 1 µg/mL

B1: AF1/CC5: murine IgM monoclonal antibody against chitooligomers (chitotriose); VH SEQ ID NO: 19, VL SEQ ID NO: 20 (antibody, listed as Mus musculus, V domains shown)
VH: STGQVKLEESGGGLVQPGGSMKLSCAASGFTFSDAWMDWVRQSPEKGLEWVAEIRSKANNHATYYAESVKGRFTISRDDSKSSVYLQMNSLRAEDTGIYYCTRHRYDGFDYWGQGTTLTFP
VL: DYFLASQGEVTMTCSASSSISYMHWYQQKPGTSPKRWIYDTSKLASGVPARFSGSGSGTSYSLTISSMEAEDAATYYCHQRSSYPCTFGAGTKLELKRADAAPTVSLETKTS
[2]; non-washed cells
  biofilm development (XTT reduction): reduced biofilm development significantly
[2]; washed cells
  biofilm development (XTT reduction): reduced biofilm development significantly
C. neoformans (H99)
  ELISA signal in cell saturation curve: a plateau to both cells was achieved
C. albicans [3]; non-washed cells
  biofilm development (XTT reduction): reduced biofilm development significantly
C. albicans [3]; washed cells
  biofilm development (XTT reduction): reduced biofilm development significantly
C. albicans [4]
  ELISA signal in cell saturation curve: a plateau to both cells was achieved
C. neoformans [5]; concentrations lower than 1.6 μg/ml, p>0.05
  melanization in lower concentrations: not significant inhibition
C. neoformans [5]; series 25 to 0.2 μg/ml, 72 hours, 1 mM L-DOPA, p<0.05
  AcM concentration with partial inhibition of melanization/pigmentation: 3.2 µg/mL and 1.6 µg/mL
C. neoformans H99; non-washed cells
  biofilm development (XTT reduction): reduced biofilm development significantly
C. neoformans H99; washed cells
  biofilm development (XTT reduction): reduced biofilm development significantly
Candida albicans
  fungal cellular wall labeling by immunofluorescence: characteristic polar label
